Experiment [1] has as its target rsYNLF-34C (v2 resurfaced YNLF_34C RBD carrying SARS-2 residues 401-507) (bat sarbecovirus YNLF_34C; SARS-CoV-2).
Experiment [2] concerns the target SARS-2^hg monomer (hyperglycosylated SARS-2 RBD) (SARS-CoV-2 (engineered)) (UniProt P0DTC2).
The target is the same in experiment [3]. The experiment in a line: BLI, Fab on FAB2G sensor, hyperglycosylated construct as analyte.

Turning to B38 Fab, the dissociation constant Kd in experiment [1] was 1.4 µM; in experiment [2] it was 2.1 µM. This substance yielded a fold decrease in affinity for B38 in experiment [3] of 2 fold.

As usually defined, the Kd is the free concentration of one partner at which half of the binding sites on the other are occupied at equilibrium, for simple one-to-one binding. High values mean weaker binding, low ones tighter binding.

The values are drawn from patent US20250032605A1.
